The text below walks through data of article doi:10.1101/2021.06.01.446590 (bioRxiv, 2021).

Assay [1] concerns the target His6-Smt3-Parkin (human, UniProt O60260 1-465, RED-tris-NTA dye bound to the His6 tag). In words: MST.
In assay [2] the target is human parkin, full-length (human, UniProt O60260 1-465). In words: ITC. A general note: Isothermal titration calorimetry measures the heat released or taken up as one component is titrated into another.
Chain of human parkin, full-length (O60260 whole entry): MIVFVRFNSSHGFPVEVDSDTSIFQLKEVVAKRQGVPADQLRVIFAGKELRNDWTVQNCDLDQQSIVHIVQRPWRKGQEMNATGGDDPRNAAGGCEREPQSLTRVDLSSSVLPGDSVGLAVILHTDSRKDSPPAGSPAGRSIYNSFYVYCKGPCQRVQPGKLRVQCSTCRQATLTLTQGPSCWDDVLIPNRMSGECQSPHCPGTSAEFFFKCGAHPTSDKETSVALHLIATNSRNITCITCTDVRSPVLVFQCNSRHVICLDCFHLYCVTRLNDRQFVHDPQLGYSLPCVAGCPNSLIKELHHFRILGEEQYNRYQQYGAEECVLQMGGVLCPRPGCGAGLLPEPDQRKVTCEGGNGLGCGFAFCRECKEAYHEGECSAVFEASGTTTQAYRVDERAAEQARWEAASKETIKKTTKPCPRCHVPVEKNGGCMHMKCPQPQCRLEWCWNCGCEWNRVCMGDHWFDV

Chain of His6-Smt3-Parkin (O60260 whole entry): as above

B1: Miro1^181-579 (soluble construct of Miro1 containing the EF1-EF2-G2 domains) (domain or fragment, human, UniProt Q8IXI2 181-579, looked up)
chain: MKPACIKALTRIFKISDQDNDGTLNDAELNFFQRICFNTPLAPQALEDVKNVVRKHISDGVADSGLTLKGFLFLHTLFIQRGRHETTWTVLRRFGYDDDLDLTPEYLFPLLKIPPDCTTELNHHAYLFLQSTFDKHDLDRDCALSPDELKDLFKVFPYIPWGPDVNNTVCTNERGWITYQGFLSQWTLTTYLDVQRCLEYLGYLGYSILTEQESQASAVTVTRDKKIDLQKKQTQRNVFRCNVIGVKNCGKSGVLQALLGRNLMRQKKIREDHKSYYAINTVYVYGQEKYLLLHDISESEFLTEAEIICDVVCLVYDVSNPKSFEYCARIFKQHFMDSRIPCLIVAAKSDLHEVKQEYSISPTDFCRKHKMPPPQAFTCNTADAPSKDIFVKLTTMAMY
On to B1, for which the dissociation constant (Kd) (commonly the concentration at which binding is half-saturated) in assay [1] is over 100 µM.

B2: human CISD1 (residues 32-108) (domain or fragment, UniProt Q9NZ45 32-108, looked up)
chain: KRFYVKDHRNKAMINLHIQKDNPKIVHAFDMEDLGDKAVYCRCWRSKKFPFCDGAHTKHNEETGDNVGPLIIKKKET
Molecule B2 displayed a dissociation constant Kd in assay [2] of over 100 µM.
